For one substance, Estimated V1a EC50 (calcium flux) and V1a Highest agonist effect (% of AVP) results are on record in patent US20230248800A1.

The target in the assay is human V1a receptor (human) (UniProt P37288). Briefly: cell-based or functional assay.
Sequence of human V1a receptor (human) (P37288 whole entry): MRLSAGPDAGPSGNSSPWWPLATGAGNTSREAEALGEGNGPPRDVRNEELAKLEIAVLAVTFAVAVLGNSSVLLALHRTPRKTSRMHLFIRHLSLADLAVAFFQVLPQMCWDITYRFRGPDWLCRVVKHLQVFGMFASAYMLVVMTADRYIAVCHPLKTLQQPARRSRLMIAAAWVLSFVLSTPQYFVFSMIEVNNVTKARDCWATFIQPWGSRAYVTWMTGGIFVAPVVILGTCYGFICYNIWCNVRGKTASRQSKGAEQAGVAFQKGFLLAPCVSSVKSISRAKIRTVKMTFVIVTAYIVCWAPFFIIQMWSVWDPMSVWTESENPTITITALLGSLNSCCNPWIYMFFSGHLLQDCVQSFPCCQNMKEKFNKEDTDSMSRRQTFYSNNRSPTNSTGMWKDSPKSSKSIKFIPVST

Consider “Lysine vasopressin (LVP) (from UniProt P01183 20-28) (peptide)”, for which the Estimated V1a EC50 (calcium flux) was 1.65 nM and the V1a Highest agonist effect (% of AVP) is 92.1 % of AVP.
